Literature values, collected in PMC4484741.
Like-named read-outs stand apart in the source and are kept apart here.

Experiments:
GLP-1 receptor [1] = molecular target: GLP-1 receptor (UniProt P43220)
GLP-1 receptor [2] = molecular target: GLP-1 receptor (UniProt P43220); remark: listed apart in the source

GLP-1 receptor, sequence (P43220 24-463): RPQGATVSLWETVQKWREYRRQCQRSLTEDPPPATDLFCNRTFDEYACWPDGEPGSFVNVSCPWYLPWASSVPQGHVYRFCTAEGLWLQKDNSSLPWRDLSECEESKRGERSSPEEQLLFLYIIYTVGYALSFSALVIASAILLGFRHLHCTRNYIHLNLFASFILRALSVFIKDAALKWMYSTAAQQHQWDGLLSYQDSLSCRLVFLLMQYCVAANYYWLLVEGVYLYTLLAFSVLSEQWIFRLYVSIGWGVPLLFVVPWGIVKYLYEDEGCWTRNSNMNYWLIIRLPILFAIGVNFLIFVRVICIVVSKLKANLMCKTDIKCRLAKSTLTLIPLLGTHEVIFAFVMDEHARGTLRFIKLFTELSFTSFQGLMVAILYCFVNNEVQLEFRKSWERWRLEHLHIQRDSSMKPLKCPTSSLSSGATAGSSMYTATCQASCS
Exendin (9-39) 9-39, sequence (P26349 56-86): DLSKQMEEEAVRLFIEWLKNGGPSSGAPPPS
Exendin-4, sequence (P26349 48-86): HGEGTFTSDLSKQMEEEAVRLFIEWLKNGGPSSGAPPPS

Row | Substance | Kd (GLP-1 receptor [1]) [nM] | Kd (GLP-1 receptor [2]) [nM]
1 | Exendin (9-39) 9-39 (from UniProt P26349) | 3 | 
2 | Exendin-4 (from UniProt P26349) |  | 0.14
